Experimental data taken from US20020081718, “POLYPEPTIDE, AND A DNA SEQUENCE TO WHICH A PROTEIN CONTAINING THE POLYPETIDE BINDS” (published 2002).

T1: hGCMa N-terminal fragment (Homo sapiens, UniProt Q9NP62 SEQ:1-171)
T1 chain: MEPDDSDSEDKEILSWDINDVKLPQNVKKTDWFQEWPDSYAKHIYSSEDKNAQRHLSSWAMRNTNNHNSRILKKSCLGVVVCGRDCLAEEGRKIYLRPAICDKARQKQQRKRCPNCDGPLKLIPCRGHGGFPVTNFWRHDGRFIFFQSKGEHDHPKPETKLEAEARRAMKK

T2: GCM N243 (MBP fusion) (Drosophila, UniProt Q27403 SEQ:1-243)
T2 chain: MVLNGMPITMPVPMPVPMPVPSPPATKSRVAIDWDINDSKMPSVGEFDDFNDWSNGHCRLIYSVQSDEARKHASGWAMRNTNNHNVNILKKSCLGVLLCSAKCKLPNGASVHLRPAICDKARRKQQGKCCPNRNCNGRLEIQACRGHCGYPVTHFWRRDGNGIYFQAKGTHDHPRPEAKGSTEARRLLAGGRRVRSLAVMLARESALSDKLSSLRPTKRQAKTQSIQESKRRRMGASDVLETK

B1: competitor a with GCM site (dsDNA)
DNA 1: TGTGTGGAATTGTGAGCGGACCTACCCGCATTACGGGTTTTCCCAGTCACGACG
DNA 2: CGTCGTGACTGGGAAAACCCGTAATGCGGGTAGGTCCGCTCACAATTCCACACA
B2: competitor b without GCM site (dsDNA)
DNA 1: TGTGTGGAATTGTGAGCGGATATACTAATTTGTTAGGTTTTCCCAGTCACGACG
DNA 2: CGTCGTGACTGGGAAAACCTAACAAATTAGTATATCCGCTCACAATTCCACACA

Experiments:
[1] = target: T1, hGCMa N-terminal fragment; test: competition; results stated similar to those of GCM
Method: Gel shift assays and competition assays were carried out in the same manner as above by using proteins obtained by causing expression of DNA fragments of up to the 171-st amino acid residue of hGCMa, giving results similar to those of GCM.

[2] = target: T2, GCM N243 (MBP fusion); test: competition; dose-dependent competition of labeled 200 bp repo fragment, 1-1000x; conditions: tags: MBP fusion (pMAL, E. coli)
[3] = target: T2, GCM N243 (MBP fusion); test: competition; no competition; conditions: tags: MBP fusion (pMAL, E. coli)

| Binder | binding result [1] | binding result [2] | binding result [3] |
| --- | --- | --- | --- |
| B1 | binds | binds |  |
| B2 | no binding |  | no binding |
